Results on 34 variants are retold here after PMC13397619.

First the molecules themselves.
B1: NLV3 TCR beta chain (CDR3β only) (parent)
chain: ASSPTGGSPSPLH
partner: NLCPMVATV
B2: NLV3 TCR beta chain (CDR3β only) (parent)
chain: ASSPTGGSPSPLH

Variants of B1 are the subject of one assay. Nature of the assay: T-Switch: Jurkat TCRβ−/− cells expressing a CDR3 saturation-mutagenesis library, stained with two peptide-HLA-A*02:01 tetramers (original and novel peptide) plus anti-CD3, FACS-sorted into four gates, gDNA sequenced. As to conditions: with HLA-A*02:01 with peptide … (NLV 2-1, the novel peptide), tetramers 1 µg/mL, 30 min on ice, SP, DP and SW gates expanded about 10 days between rounds ('two to three rounds of selection' in the Methods), gate SW: higher = more of the variant in the gate that binds the novel peptide and not the original one = switched binding. Fold enrichment of the CDR3 variant in one FACS gate of a two-tetramer stain, unresolved parent, parent is a CDR3 fragment, scale: fold enrichment, numbering: sequential-on-construct, sequence starts at 1.
On to […] (CDR3 as printed); G7M derived by comparing it with the table's wild-type CDR3 ASSPTGGSPSPLH, for which the enrichment is 0. Turning to […] (CDR3 as printed); G6W derived by comparing it with the table's wild-type CDR3 ASSPTGGSPSPLH, the enrichment is 0. On to […] (CDR3 as printed); H13Y derived by comparing it with the table's wild-type CDR3 ASSPTGGSPSPLH, for which the enrichment is 0. As for […] (CDR3 as printed); P9V derived by comparing it with the table's wild-type CDR3 ASSPTGGSPSPLH, the enrichment was 0. On to […] (CDR3 as printed); A1E derived by comparing it with the table's wild-type CDR3 ASSPTGGSPSPLH, for which the enrichment was determined as 0.

For […] (CDR3 as printed); S2I derived by comparing it with the table's wild-type CDR3 ASSPTGGSPSPLH, the enrichment is 0. The same measure, in the same setting: the result for […] (CDR3 as printed); G7T derived by comparing it with the table's wild-type CDR3 ASSPTGGSPSPLH reads 0; that for […] (CDR3 as printed); G6C derived by comparing it with the table's wild-type CDR3 ASSPTGGSPSPLH, 0; that for […] (CDR3 as printed); P9I derived by comparing it with the table's wild-type CDR3 ASSPTGGSPSPLH, 0. With […] (CDR3 as printed); P9N derived by comparing it with the table's wild-type CDR3 ASSPTGGSPSPLH, the enrichment came to 0. Still for that read-out and setting: the result for […] (CDR3 as printed); G6S derived by comparing it with the table's wild-type CDR3 ASSPTGGSPSPLH reads 0; that for […] (CDR3 as printed); L12P derived by comparing it with the table's wild-type CDR3 ASSPTGGSPSPLH, 0; that for […] (CDR3 as printed); G6T derived by comparing it with the table's wild-type CDR3 ASSPTGGSPSPLH, 0. As to […] (CDR3 as printed); P4S derived by comparing it with the table's wild-type CDR3 ASSPTGGSPSPLH, the enrichment was 0. The same measure, in the same setting: the same measure for […] (CDR3 as printed); P11Q derived by comparing it with the table's wild-type CDR3 ASSPTGGSPSPLH: 0; for […] (CDR3 as printed); S2C derived by comparing it with the table's wild-type CDR3 ASSPTGGSPSPLH: 0. In the case of […] (CDR3 as printed); P4K derived by comparing it with the table's wild-type CDR3 ASSPTGGSPSPLH, the enrichment turned out to be 0.

As to […] (CDR3 as printed); S2G derived by comparing it with the table's wild-type CDR3 ASSPTGGSPSPLH, the enrichment worked out at 0. On to […] (CDR3 as printed); P9K derived by comparing it with the table's wild-type CDR3 ASSPTGGSPSPLH, for which the enrichment was 0. On to […] (CDR3 as printed); A1F derived by comparing it with the table's wild-type CDR3 ASSPTGGSPSPLH, for which the enrichment turned out to be 0. As to […] (CDR3 as printed); A1P derived by comparing it with the table's wild-type CDR3 ASSPTGGSPSPLH, the enrichment is 0. […] (CDR3 as printed); G6M derived by comparing it with the table's wild-type CDR3 ASSPTGGSPSPLH: the enrichment worked out at 0.

Consider […] (CDR3 as printed); H13F derived by comparing it with the table's wild-type CDR3 ASSPTGGSPSPLH, for which the enrichment was determined as 0.

[…] (CDR3 as printed); A1L derived by comparing it with the table's wild-type CDR3 ASSPTGGSPSPLH: the enrichment came to 0. As for […] (CDR3 as printed); P11A derived by comparing it with the table's wild-type CDR3 ASSPTGGSPSPLH, the enrichment came to 0.

The variants in the next assay derive from B2. Described as above. As to conditions: with both tetramers (double-negative gate, binds neither): HLA-A*02:01 with … and with …, tetramers 1 µg/mL, 30 min on ice, SP, DP and SW gates expanded about 10 days between rounds ('two to three rounds of selection' in the Methods), gate DN: OPPOSITE: higher = more of the variant in the gate that binds neither peptide = LESS binding (or no expression; inferred). Fold enrichment of the CDR3 variant in one FACS gate of a two-tetram, unresolved parent, parent is a CDR3 fragment, scale: fold enrichment, numbering: sequential-on-construct, sequence starts at 1.
[…] (CDR3 as printed); T5Q derived by comparing it with the table's wild-type CDR3 ASSPTGGSPSPLH: the enrichment amounted to 1.16. Turning to […] (CDR3 as printed); T5R derived by comparing it with the table's wild-type CDR3 ASSPTGGSPSPLH, the enrichment was found to be 1.07. Consider […] (CDR3 as printed); T5P derived by comparing it with the table's wild-type CDR3 ASSPTGGSPSPLH, for which the enrichment came to 1.04. As to […] (CDR3 as printed); T5S derived by comparing it with the table's wild-type CDR3 ASSPTGGSPSPLH, the enrichment was 0.633.

Consider […] (CDR3 as printed); T5V derived by comparing it with the table's wild-type CDR3 ASSPTGGSPSPLH, for which the enrichment was determined as 0.249.

Regarding […] (CDR3 as printed); T5Y derived by comparing it with the table's wild-type CDR3 ASSPTGGSPSPLH, the enrichment is 0.587.

Consider […] (CDR3 as printed); T5W derived by comparing it with the table's wild-type CDR3 ASSPTGGSPSPLH, for which the enrichment is 0.

The same assay, now with this note: with both tetramers (double-positive gate): HLA-A*02:01 with … and with …, tetramers 1 µg/mL, 30 min on ice, SP, DP and SW gates expanded about 10 days between rounds ('two to three rounds of selection' in the Methods), gate DP: higher = more of the variant in the gate that binds both peptides. Fold enrichment of the CDR3 variant in one FACS gate of a two-tetramer stain. SP/DP/SW gates were expanded and re-sorted bef, unresolved parent, parent is a CDR3 fragment, scale: fold enrichment, numbering: sequential-on-construct, sequence starts at 1.
Consider […] (CDR3 as printed); T5Q derived by comparing it with the table's wild-type CDR3 ASSPTGGSPSPLH, for which the enrichment was 0.

Turning to […] (CDR3 as printed); T5R derived by comparing it with the table's wild-type CDR3 ASSPTGGSPSPLH, the enrichment came out at 0. Regarding […] (CDR3 as printed); T5P derived by comparing it with the table's wild-type CDR3 ASSPTGGSPSPLH, the enrichment is 0.

As for […] (CDR3 as printed); T5S derived by comparing it with the table's wild-type CDR3 ASSPTGGSPSPLH, the enrichment came to 0. […] (CDR3 as printed); T5V derived by comparing it with the table's wild-type CDR3 ASSPTGGSPSPLH: the enrichment came to 0. Still for that read-out and setting: the result for […] (CDR3 as printed); T5Y derived by comparing it with the table's wild-type CDR3 ASSPTGGSPSPLH reads 0; that for […] (CDR3 as printed); T5W derived by comparing it with the table's wild-type CDR3 ASSPTGGSPSPLH, 0.

The same assay, now with this note: with both tetramers (double-negative gate, binds neither): HLA-A*02:01 with … and with …, tetramers 1 µg/mL, 30 min on ice, SP, DP and SW gates expanded about 10 days between rounds ('two to three rounds of selection' in the Methods), gate DN: OPPOSITE: higher = more of the variant in the gate that binds neither peptide = LESS binding (or no expression; inferred). Fold enrichment of the CDR3 variant in one FACS gate of a two-tetram, unresolved parent, parent is a CDR3 fragment, zero in all gates, scale: fold enrichment, numbering: sequential-on-construct, ….
For […] (CDR3 as printed); G7P derived by comparing it with the table's wild-type CDR3 ASSPTGGSPSPLH, the enrichment stood at 0.

Take […] (CDR3 as printed); S2L derived by comparing it with the table's wild-type CDR3 ASSPTGGSPSPLH: the enrichment was determined as 0.

Staying with this assay, now noted: with both tetramers (double-positive gate): HLA-A*02:01 with … and with …, tetramers 1 µg/mL, 30 min on ice, SP, DP and SW gates expanded about 10 days between rounds ('two to three rounds of selection' in the Methods), gate DP: higher = more of the variant in the gate that binds both peptides. Fold enrichment of the CDR3 variant in one FACS gate of a two-tetramer stain. SP/DP/SW gates were expanded and re-sorted bef, unresolved parent, parent is a CDR3 fragment, zero in all gates, scale: fold enrichment, numbering: sequential-on-construct, sequence starts at 1.
Consider […] (CDR3 as printed); G7P derived by comparing it with the table's wild-type CDR3 ASSPTGGSPSPLH, for which the enrichment was 0. […] (CDR3 as printed); S2L derived by comparing it with the table's wild-type CDR3 ASSPTGGSPSPLH: the enrichment amounted to 0.
